Experimental data as given in publication PMC11623929.

Target: WDR5-Luc-FKBP12

decrease of luciferase activity of the WDR5 fusion in HEK293 cells, rapamycin overnight, 10- or 100-fold excess of the VHL-FRB plasmid (bridged by rapamycin): 50.2%
Substance: VHL-FRB (from UniProt P42345 2019-2112)
